Assay results from US5733790, “CRF binding protein antibodies and assays using same” (The Salk Institute for Biological Studies, dated 1998).

Biological target: T1, rat/human corticotropin releasing factor (human and rat (same 41-residue sequence), C-terminal amide (NH2))
T1 peptide: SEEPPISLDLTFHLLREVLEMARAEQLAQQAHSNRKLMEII
Experiment: binding assay, method not described

Kd: 0.1 nM
B1: purified human CRF-BP (native 37 kD protein purified from human plasma) (other)
chain: YLELREAADYDPFLLFSANLKRELAGEQPYRRALRCLDMLSLQGQFTFTADRPQLHCAAFFISEPEEFITIHYDQVSIDCQGGDFLKVFDGWILKGEKFPSSQDHPLPSAERYIDFCESGLSRRSIRSSQNVAMIFFRVHEPGNGFTLTIKTDPNLFPCNVISQTPNGKFTLVVPHQHRNCSFSIIYPVVIKISDLTLGHVNGLQLKKSSAGCEGIGDFVELLGGTGLDPSKMTPLADLCYPFHGPAQMKVGCDNTVVRMVSSGKHVNRVTFEYRQLEPYELENPNGNSIGEFCLSGL
